Measured values published in publication PMC4119988 (British Journal of Cancer, 2014).

Target: OTU domain-containing protein 1 (Homo sapiens (Human)., UniProt Q5VV17)
Experiment: far-Western, overlay or dot blot

Sequence of OTU domain-containing protein 1 (Q5VV17 whole entry, the tested form may be a part): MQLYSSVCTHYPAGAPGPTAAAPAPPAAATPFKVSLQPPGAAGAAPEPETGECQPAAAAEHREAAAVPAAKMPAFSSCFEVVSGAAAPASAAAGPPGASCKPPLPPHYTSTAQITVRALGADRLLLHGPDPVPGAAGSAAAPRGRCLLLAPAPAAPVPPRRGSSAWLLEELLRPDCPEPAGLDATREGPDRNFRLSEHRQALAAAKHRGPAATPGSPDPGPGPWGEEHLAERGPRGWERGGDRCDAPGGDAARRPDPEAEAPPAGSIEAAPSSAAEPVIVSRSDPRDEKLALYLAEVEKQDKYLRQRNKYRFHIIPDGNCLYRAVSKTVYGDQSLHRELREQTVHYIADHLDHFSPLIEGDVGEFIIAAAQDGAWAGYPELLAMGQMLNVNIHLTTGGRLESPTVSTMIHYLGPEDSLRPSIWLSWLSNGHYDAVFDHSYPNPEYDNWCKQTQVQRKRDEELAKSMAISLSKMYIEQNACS

binding result: binds
B1: scFv-C1 (scFv, V domains shown)
VH: EVQLLESGGGLVQPGGSLGLSCVASGFTFSDRWMSWVRQAPGKGLEWVAKIKQDGSEKLYVDSVKGRFTIPRDNSKNSLYLQMDSLRAEDTAVYYCVRGAGWLLDHWGQGILVTVSS
VL: SYVLTQPPSVSVAPGKTARITCGGNNIGRKSVHWYQQKPGQAPVLVVYDDSDRPSGIPERFSGSNSGNTATLTISRVEAGDEADYYCQVWDSSSDHSNWVFGGGTQLTVL
